Three molecules from US5488099, “Multifunctional chimeric neurotrophic factors” (dated 1996) can be followed below.

Numbering of substitutions follows the chain as printed. Numbers in names are those of the source.

For assay [1], the target named is T1, TrkA (Rattus norvegicus (Rat), UniProt P35739). The assay can be described thus: competition with 125I-NGF on rtrkA-3T3 cells. On the procedure:
(§1) FIG. 2A–D. TrkA receptor binding, receptor phosphorylation and biological activity of wild-type (wt) and chimeric molecules (see SEQ. ID. NOS. 1 and 2 for all chimeric constructions). […] Each point represents the mean of triplicate determinations. Standard deviation was at or generally below ±10%. (B) and (C) Tyrosine phosphorylation of TrkA receptors stimulated by wt NGF, wt BDNF and chimeric molecules. rtrkA-3T3 cells were treated with 100 ng/ml of the indicated recombinant proteins and assayed for tyrosine phosphorylation. Media from mock-transfected COS cells was used as negative control (CONTROL). Arrowhead indicates the migration of phosphorylated TrkA (p140^trk). The faster migrating band correspond to constituitively phosphorylated p140^trk precursors ([Kaplan, 1991]). (D) Serial dilutions of transfected COS cell conditioned medium containing equal amounts of wt and chimeric factors were assayed for their ability to stimulate neurite outgrowth from E8 chick sympathetic ganglia. Data from three determinations varied by ±20% of the average values reported here. Key symbols as in (A).
Purified mouse NGF and BDNF were labeled with ^125I by the lactoperoxidase method to an average specific activity of 1×10^8 cpm/μg. For the labeling of BDNF, the modifications described by Rodriguez-Tebar et al. ([Rodriguez-Tebar, 1992]) were used. […] Cell pellets were then counted in a gamma counter.

In assay [2] the target is TrkB (Rattus norvegicus (Rat)) (UniProt Q63604).
Assay [3] addresses T1, TrkA. The assay can be described thus: competition with 125I-NGF on rtrkA-3T3 cells, COS conditioned medium, relative binding from IC50. On the procedure: as §1
Purified mouse NGF and BDNF were labeled with ^125I by the lactoperoxidase method to an average specific activity of 1×10^8 cpm/μg. For the labeling of BDNF, the modifications described by Rodriguez-Tebar et al. ([Rodriguez-Tebar, 1992]) were used. NIH3T3 fibroblasts expressing TrkA, TrkB or TrkC were used at 2 to 1–×10^6 cells/ml. […] All components were added at the same time and the cells were collected by centrifugation after equilibrium was reached (90–120 minutes incubation). Cell pellets were then counted in a gamma counter.

Assay [4] has as its target TrkA of NGF-responsive neurons from embryonic chick sympathetic ganglia (chick).
In assay [5] the target is T2, TrkB (Rattus norvegicus (Rat), UniProt Q63604). The assay can be described thus: competition with 125I-BDNF on rtrkB-3T3 cells, COS conditioned medium, relative binding from IC50. Here is the method: (§2) Purified mouse NGF and BDNF were labeled with ^125I by the lactoperoxidase method to an average specific activity of 1×10^8 cpm/μg. For the labeling of BDNF, the modifications described by Rodriguez-Tebar et al. ([Rodriguez-Tebar, 1992]) were used. NIH3T3 fibroblasts expressing TrkA, TrkB or TrkC were used at 2 to 1–×10^6 cells/ml. Steady state binding was measured in competition assays performed at 4° C. using 1.5×10^-9M ^125I-BDNF and serial dilutions of conditioned media containing equivalent amounts of wt or mutated NGF protein. All components were added at the same time and the cells were collected by centrifugation after equilibrium was reached (90–120 minutes incubation). Cell pellets were then counted in a gamma counter. […] Nonspecific binding was measured in a parallel incubation to which 300 to 1000-fold molar excess of unlabelled purified factor was added. All results were corrected for this nonspecific binding, which was less than 10% (for NGF) or 30% (for BDNF) of total binding. The concentration of each chimeric, mutant and wild type molecule that gave 50% binding (IC$50$) was determined, and relative binding was calculated using the relationship:(mutant IC$50$/wild type IC$50$)X 100.

Assay [6] deals with TrkB of BDNF-responsive neurons from embryonic chick nodose ganglia (chick).
Assay [7] concerns the target T2, TrkB. Briefly: competition with 125I-BDNF on rtrkB-3T3 cells. On the procedure: as §2
Assay [8] concerns the target T1, TrkA. Briefly: competition with 125I-NGF on rtrkA-3T3 cells. Here is the method:
as §2, with “Steady state binding was measured in competition assays performed at 4° C. using 1.5×10^-9M ^125I-BDNF and serial dilutions of conditioned media containing equivalent amounts of wt or mutated NGF protein.” left out
Figure 3A: FIG. 3A&B. NGF variable regions I, IV and V partially restore TrkA binding and biological activity of the NH_2+I+III+IV+V chimeric molecule (see SEQ. ID. NOS. 1 and 2 for all chimera construction). […] Each point represents the mean of triplicate determinations.
The source holds these as a separate data set.

Sequence of TrkB of BDNF-responsive neurons from embryonic chick nodose ganglia (chick) (Q91987 whole entry): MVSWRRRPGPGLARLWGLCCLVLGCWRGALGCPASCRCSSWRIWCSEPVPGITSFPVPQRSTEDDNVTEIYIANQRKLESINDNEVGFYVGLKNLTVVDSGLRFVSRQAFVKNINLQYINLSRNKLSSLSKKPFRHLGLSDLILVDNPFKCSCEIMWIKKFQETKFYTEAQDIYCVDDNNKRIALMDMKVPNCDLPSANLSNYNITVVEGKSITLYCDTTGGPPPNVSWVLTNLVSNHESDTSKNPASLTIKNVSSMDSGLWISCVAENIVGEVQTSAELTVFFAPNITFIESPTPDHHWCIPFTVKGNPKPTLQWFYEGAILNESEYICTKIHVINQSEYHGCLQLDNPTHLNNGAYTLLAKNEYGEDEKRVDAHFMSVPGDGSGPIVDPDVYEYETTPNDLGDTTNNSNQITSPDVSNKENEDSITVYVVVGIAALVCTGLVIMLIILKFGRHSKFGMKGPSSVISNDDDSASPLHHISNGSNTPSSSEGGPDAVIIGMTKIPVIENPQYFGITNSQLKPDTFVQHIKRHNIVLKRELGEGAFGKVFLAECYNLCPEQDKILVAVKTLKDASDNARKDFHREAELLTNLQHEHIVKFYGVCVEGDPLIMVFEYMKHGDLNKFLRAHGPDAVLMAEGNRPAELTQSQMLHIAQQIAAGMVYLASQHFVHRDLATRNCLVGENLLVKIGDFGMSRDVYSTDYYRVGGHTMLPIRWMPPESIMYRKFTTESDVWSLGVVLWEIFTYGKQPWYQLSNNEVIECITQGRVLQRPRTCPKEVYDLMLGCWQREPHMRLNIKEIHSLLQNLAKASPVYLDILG

B1: wild-type brain-derived neurotrophic factor (ligand)
chain: HSDPARRGELSVCDSISEWVTAADKKTAVDMSGGTVTVLEKVPVSKGQLKQYFYETKCNPMGYTKEGCRGIDKRHWSNQCRTTQSYVRALTMDSKKRIGWRFIRIDTSCVCTLTIKRGR
In the case of B1, the binding result in assay [1] is “no binding (tested: <0,2 % of wild type)”. The same molecule displayed an EC50 of TrkB tyrosine phosphorylation in assay [2] of 5 ng/mL. Also, the “Receptor Binding % of wild type” value in assay [3] was < 0.2 % of wild type; in assay [5], 100 % of wild type. Moreover, the Biological Activity % of wild type (neurite outgrowth from explants of embryonic sympathetic ganglia) (% of wild type) in assay [4] is less than 0.2. The molecule further showed a Biological Activity % of wild type (maximal cell survival of dissociated embryonic nodose neurons) (% of wild type) in assay [6] of 100.

B2: wild-type rat nerve growth factor (ligand)
chain: SSTHPVFHMGEFSVCDSVSVWVGDKTTATDIKGKEVTVLGEVNINNSVFKQYFFETKCRAPNPVESGCRGIDSKHWSNYCTTTHTFVKALTTDDKQAAWRFIRIDTACVCVLSRKAARRG
As for B2, in assay [7], the binding result is “no binding (tested: <0,2 % of wild type)”. Further, the figures for the “Receptor Binding % of wild type” value in assay [3] and in assay [5] were 100 % of wild type and < 0.2 % of wild type, respectively. Moreover, the Biological Activity % of wild type (neurite outgrowth from explants of embryonic sympathetic ganglia) (% of wild type) in assay [4] was 100. The molecule also showed a Biological Activity % of wild type (maximal cell survival of dissociated embryonic nodose neurons) (% of wild type) in assay [6] of less than 5.

B3: NGF mutant I31A (ligand)
chain: B2 chain with I31A
Regarding B3, in assay [8], the “fold reduction in receptor binding against wt NGF” value is 4 fold. Also, in assay [3], the “Receptor Binding % of wild type” value is 20 % of wild type. The molecule also gave a Biological Activity % of wild type (neurite outgrowth from explants of embryonic sympathetic ganglia) (% of wild type) in assay [4] of 25.
